Target: Staphylococcus aureus alpha-hemolysin (Staphylococcus aureus, UniProt P09616)
Sequence (P09616 27-319 limits assumed): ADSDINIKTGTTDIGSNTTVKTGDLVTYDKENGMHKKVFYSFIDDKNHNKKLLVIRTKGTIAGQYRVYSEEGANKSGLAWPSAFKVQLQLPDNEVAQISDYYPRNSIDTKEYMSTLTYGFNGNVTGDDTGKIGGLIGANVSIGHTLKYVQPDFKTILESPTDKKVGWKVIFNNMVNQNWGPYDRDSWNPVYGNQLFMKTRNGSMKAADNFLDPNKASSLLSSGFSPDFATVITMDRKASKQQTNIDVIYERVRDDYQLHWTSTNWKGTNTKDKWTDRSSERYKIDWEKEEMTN

B1: CAN24G4 monoclonal antibody (antibody, V domains shown)
VH: EVHLQQSGAELVKPGASVRLSCTGSGLDIKDTYIHWVKKRPEQGLEWIGRIDPANGITKYDPKFQGKATVTADTSSNTAYLQFSSLTSEDSAVYYCSSEYYPYPMDYWGQGTSVTVSS
VL: DIKMTQPPSSMYASLGERVTVTCKASQDISSFLTWFQQKPGKSPKILIYRANRVVDGVPSRFSGSGSGHDYSLTISSLESEDMGIYYCLQYDEFPWTFGGGTKLEIK
Work on B1 yielded a Kd of 9.4 nM, a koff of 0.004 s⁻¹ and a kon of 430000 M⁻¹ s⁻¹.

Source: US20140286960A1 (CANGENE, published 2014)
